Assay results as given in patent publication US20240239902A1.

Biological target: NKG2D on effector cells (NK cells, MNC) (human) (UniProt P26718)
Assay: cell-based or functional assay

Chain of UniProt P26718 (P26718 whole entry): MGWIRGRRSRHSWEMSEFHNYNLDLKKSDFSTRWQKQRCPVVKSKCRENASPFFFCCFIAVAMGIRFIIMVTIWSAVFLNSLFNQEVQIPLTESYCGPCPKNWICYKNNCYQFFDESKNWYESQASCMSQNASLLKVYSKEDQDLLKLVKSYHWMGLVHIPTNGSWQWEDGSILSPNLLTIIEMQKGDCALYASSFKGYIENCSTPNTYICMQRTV

B1: bispecific antibody [CD20×NKG2D #3] (bispecific antibody, part only; not given: constant regions, Fab-scFv linker, tags, not shown: another chain or arm of the molecule; a dimerising Fc or GST; small tags and cut ends)
VH: QVQLQQPGAELVKPGASVKMSCKASGYTFTSYNMHWVKQTPGRGLEWIGAIYPGNGDTSYNQKFKGKATLTADKSSSTAYMQLSSLTSEDSAVYYCARSTYYGGDWYFNVWGAGTTVTVSS
VL: QIVLSQSPAILSASPGEKVTMTCRASSSVSYIHWFQQKPGSSPKPWIYATSNLASGVPVRFSGSGSGTSYSLTISRVEAEDAATYYCQQWTSNPPTFGGGTKLEIK
scFv: QVQLVQSGAEVKKPGASVKVSCKASGYTFTSYGISWVRQAPGQGLEWMGGIIPIFGTANYAQKFQGRVTITADESTSTAYMELSSLRSEDTAVYYCAKDLYDYVWGSYRPNWYFDLWGRGTLVTVSSGSASAPKLEEGEFSEARVSSELTQDPAVSVALGQTVRITCQGDSLRGYYASWYQQKPGQAPVLVTYGNNKRPSGIPDRFSGSSSGNTASLTITGTQAEDEADYYCNSRDNNGNFVIFGGGTKLTVL
In the case of B1, the maximum lysis, CD19-DE mediated ADCC against GRANTA-519 with MNC, in combination with the bsAb (4 h 51Cr release) is reported as 24.5%.
